According to patent US20140288149A1:

Molecular target: IL-7 receptor (IL-7R), mouse (mouse) (UniProt P16872)
Assay: cell-based or functional assay

Chain of UniProt P16872 (P16872 21-459, chain 1 of 2): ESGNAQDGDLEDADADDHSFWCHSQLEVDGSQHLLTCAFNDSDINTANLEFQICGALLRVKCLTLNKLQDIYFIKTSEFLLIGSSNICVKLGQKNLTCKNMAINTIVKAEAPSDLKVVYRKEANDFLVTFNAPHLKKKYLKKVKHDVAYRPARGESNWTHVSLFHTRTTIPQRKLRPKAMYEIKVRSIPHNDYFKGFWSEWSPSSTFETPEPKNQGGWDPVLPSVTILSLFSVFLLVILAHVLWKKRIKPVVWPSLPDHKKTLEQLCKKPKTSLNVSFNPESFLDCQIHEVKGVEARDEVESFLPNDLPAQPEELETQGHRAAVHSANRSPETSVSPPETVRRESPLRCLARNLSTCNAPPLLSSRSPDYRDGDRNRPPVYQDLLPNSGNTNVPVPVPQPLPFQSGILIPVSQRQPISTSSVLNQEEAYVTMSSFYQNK
Chain of UniProt P16872 (P34902 23-369, chain 2 of 2, further chain): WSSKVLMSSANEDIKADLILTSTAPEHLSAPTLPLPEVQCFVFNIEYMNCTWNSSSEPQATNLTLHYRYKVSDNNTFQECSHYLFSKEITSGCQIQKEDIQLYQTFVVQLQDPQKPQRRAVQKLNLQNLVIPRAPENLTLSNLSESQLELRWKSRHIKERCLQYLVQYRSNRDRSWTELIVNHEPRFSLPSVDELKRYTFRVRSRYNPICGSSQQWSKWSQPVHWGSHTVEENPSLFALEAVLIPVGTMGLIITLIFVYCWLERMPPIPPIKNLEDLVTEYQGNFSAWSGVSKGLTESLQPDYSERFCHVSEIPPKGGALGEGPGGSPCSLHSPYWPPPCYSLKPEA

## recombinant mouse IL-7 (from UniProt P10168 26-154) (ligand)
  percentage of cells positive for pSTAT5 (flow cytometry / ImageStream), WT CD4+ T cells, 30 minutes of culture with IL-7: > 71%
  percentage of cells positive for pSTAT5 (flow cytometry / ImageStream), mir-142-/- CD4+ T cells, 30 minutes of culture with IL-7: 8.7%
